# Test results taken from patent US20180155451A1 (published 2018).
# Legend:
# [1] = target: T1, FcγRIIb, extracellular domain with C-terminal His tag (human, UniProt P31994 43-217); assay: SPR (Biacore), antibody captured on antigen-peptide chip, FcγR as analyte; GpH7-A5/GpH7-B3/GpL16-k0 = 100
# T1 construct: extracellular domain; also called 2b; FcgRIIb; not shown: His tag at the C terminus
# T1 sequence (looked up): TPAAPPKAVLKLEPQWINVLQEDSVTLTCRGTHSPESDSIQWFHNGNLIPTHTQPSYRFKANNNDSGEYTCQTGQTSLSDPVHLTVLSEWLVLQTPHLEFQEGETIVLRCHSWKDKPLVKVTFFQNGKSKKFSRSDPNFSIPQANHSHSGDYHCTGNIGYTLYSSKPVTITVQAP
# [2] = target: T2, FcγRIIa H (FcγRIIa type H, His at position 131), extracellular domain with C-terminal His tag (human, UniProt P12318 34-217); assay: as above
# T2 construct: extracellular domain; also called 2aH; FcgRIIa H; not shown: His tag at the C terminus
# T2 sequence (looked up): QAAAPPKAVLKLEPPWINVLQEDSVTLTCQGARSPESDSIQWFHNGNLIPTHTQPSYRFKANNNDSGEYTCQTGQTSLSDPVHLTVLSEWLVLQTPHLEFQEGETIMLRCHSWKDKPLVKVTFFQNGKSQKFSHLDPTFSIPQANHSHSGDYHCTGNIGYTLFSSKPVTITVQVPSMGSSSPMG
# [3] = target: T2, FcγRIIa H (FcγRIIa type H, His at …); assay: ratio of He/Con_2aH (FcγRIIa H) to He/Con_2b (FcγRIIb), SPR relative binding
# Description: The heterodimerized antibodies He Abs in which one of the H chains was introduced with an alteration were assayed for their binding activities to each activating FcγR and inhibitory FcγR according to the method described in Example 4. […] The activating FcγRs in FIGS. 26, 27, 28, and 29 are FcγRIa, FcγRIIa (R), FcγRIIa (H), and FcγRIIIa, respectively.
# (§1) Analysis of interaction between objective antibody and the FcγR was carried out using Biacore T100 (GE Healthcare). HBS-EP+ (GE Healthcare) was used as the running buffer, and the measurement temperature was set to 25° C. Chips produced by immobilizing the antigen peptide by the amine coupling method to a Series S Sencor Chip CM5 (GE Healthcare), or alternatively, chips produced by allowing preliminarily biotinylated antigen peptides to interact with and immobilize onto a Series S Sensor Chip SA (certified) (GE Healthcare) were used. Antibodies of interest were captured onto an antigen peptide-immobilized chip, and allowed to interact to each FcγR diluted with running buffer. To regenerate and repeatedly use the chip, the antibodies captured on the chip were washed off by reacting 10 mM glycine-HCl, pH 1.5.
# [4] = target: T3, FcγRIIb extracellular domain with C-terminal His tag (human, UniProt P31994 43-217); assay: SPR (Biacore), antibody captured on antigen peptide chip, FcγR as analyte; relative binding amount
# T3 construct: extracellular domain; also called FcgRIIb; 2b; not shown: His tag at the C terminus
# T3 sequence (looked up): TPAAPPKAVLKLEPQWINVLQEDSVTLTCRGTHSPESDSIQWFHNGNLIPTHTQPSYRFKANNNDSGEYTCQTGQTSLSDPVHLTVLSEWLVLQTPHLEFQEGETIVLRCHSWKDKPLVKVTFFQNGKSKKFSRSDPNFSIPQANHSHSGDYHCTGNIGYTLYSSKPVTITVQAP
# Description: as §1
# (§2) The FcγR-binding activity of each antibody was assessed primarily using as an indicator the FcγR-binding activity and dissociation constant for FcγR.
# [5] = target: T4, FcγRIIIa extracellular domain with C-terminal His tag (human, UniProt P08637 17-208); assay: as above
# T4 construct: extracellular domain; also called FcgRIIIa; 3a; not shown: His tag at the C terminus
# T4 sequence (P08637 17-208): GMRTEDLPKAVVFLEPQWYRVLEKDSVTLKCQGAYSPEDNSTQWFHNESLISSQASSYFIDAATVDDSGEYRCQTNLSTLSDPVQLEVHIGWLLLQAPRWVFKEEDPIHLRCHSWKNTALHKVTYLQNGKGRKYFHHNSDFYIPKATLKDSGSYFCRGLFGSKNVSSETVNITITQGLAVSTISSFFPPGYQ
# Description: as §1, §2
# [6] = target: T4, FcγRIIIa extracellular domain with …; assay: SPR; He/Con_3a divided by He/Con_2b (binding to FcγRIIb is the reference)
# Description: as §1, §2
Binder,He/Con_2b (relative binding activity) [1],He/Con_2aH (relative binding activity) [2],He_2aH/2b (IIaH/IIb ratio) [3],He/Con_2b [4],He/Con_3a [5],He_3a/2b (IIIa/IIb) [6] [ratio]
"GpH7-A5/GpH7-B3 variant V266_09D/GpL16-k0 (antibody, human IgG1, kappa, Heterodimerized IgG1 (He Ab); mutation only in the GpH7-B3 chain; also called He Ab V266D) heavy 1: not shown heavy 2: not shown light: DIVMTQSPLSLPVTPGEPASISCQASESLVHSNRNTYLHWYLQKPGQSPQLLIYKVSNRFSGVPDRFSGSGSGTDFTLKISRVEAEDVGVYYCSQNTHVPPTFGQGTKVEIERTVAAPSVFIFPPSDEQLKSGTASVVCLLNNFYPREAKVQWKVDNALQSGNSQESVTEQDSKDSTYSLSSTLTLSKADYEKHKVYACEVTHQGLSSPVTKSFNRGEC",10.1 % of control,6.4 % of control,0.63,–,–,–
"GpH7-A5/GpH7-B3 variant S239_01G/GpL16-k0 (antibody, human IgG1, kappa, Heterodimerized anti-glypican-3 IgG1; the substitution stands in the GpH7-B3 chain only; also called He Ab) heavy 1: not shown heavy 2: not shown light: DIVMTQSPLSLPVTPGEPASISCQASESLVHSNRNTYLHWYLQKPGQSPQLLIYKVSNRFSGVPDRFSGSGSGTDFTLKISRVEAEDVGVYYCSQNTHVPPTFGQGTKVEIERTVAAPSVFIFPPSDEQLKSGTASVVCLLNNFYPREAKVQWKVDNALQSGNSQESVTEQDSKDSTYSLSSTLTLSKADYEKHKVYACEVTHQGLSSPVTKSFNRGEC",–,–,–,144 % of GpH7-A5/GpH7-B3/GpL16-k0 (=100),76.2 % of GpH7-A5/GpH7-B3/GpL16-k0 (=100),0.53
"GpH7-A5/GpH7-B3 variant P238_19Q/GpL16-k0 (antibody, human IgG1, kappa, Heterodimerized anti-glypican-3 IgG1; the substitution stands in the GpH7-B3 chain only; also called He Ab) heavy 1: not shown heavy 2: not shown light: DIVMTQSPLSLPVTPGEPASISCQASESLVHSNRNTYLHWYLQKPGQSPQLLIYKVSNRFSGVPDRFSGSGSGTDFTLKISRVEAEDVGVYYCSQNTHVPPTFGQGTKVEIERTVAAPSVFIFPPSDEQLKSGTASVVCLLNNFYPREAKVQWKVDNALQSGNSQESVTEQDSKDSTYSLSSTLTLSKADYEKHKVYACEVTHQGLSSPVTKSFNRGEC",–,–,–,110 % of GpH7-A5/GpH7-B3/GpL16-k0 (=100),55.8 % of GpH7-A5/GpH7-B3/GpL16-k0 (=100),0.51
"GpH7-A5/GpH7-B3 variant V266_13S/GpL16-k0 (antibody, human IgG1, kappa, Heterodimerized IgG1 (He Ab); mutation only in the GpH7-B3 chain; also called He Ab V266S) heavy 1: not shown heavy 2: not shown light: DIVMTQSPLSLPVTPGEPASISCQASESLVHSNRNTYLHWYLQKPGQSPQLLIYKVSNRFSGVPDRFSGSGSGTDFTLKISRVEAEDVGVYYCSQNTHVPPTFGQGTKVEIERTVAAPSVFIFPPSDEQLKSGTASVVCLLNNFYPREAKVQWKVDNALQSGNSQESVTEQDSKDSTYSLSSTLTLSKADYEKHKVYACEVTHQGLSSPVTKSFNRGEC",54.4 % of control,27 % of control,0.5,–,–,–
"GpH7-A5/GpH7-B3 variant P238_18N/GpL16-k0 (antibody, human IgG1, kappa, Heterodimerized anti-glypican-3 IgG1; the substitution stands in the GpH7-B3 chain only; also called He Ab) heavy 1: not shown heavy 2: not shown light: DIVMTQSPLSLPVTPGEPASISCQASESLVHSNRNTYLHWYLQKPGQSPQLLIYKVSNRFSGVPDRFSGSGSGTDFTLKISRVEAEDVGVYYCSQNTHVPPTFGQGTKVEIERTVAAPSVFIFPPSDEQLKSGTASVVCLLNNFYPREAKVQWKVDNALQSGNSQESVTEQDSKDSTYSLSSTLTLSKADYEKHKVYACEVTHQGLSSPVTKSFNRGEC",–,–,–,73.2 % of GpH7-A5/GpH7-B3/GpL16-k0 (=100),40.4 % of GpH7-A5/GpH7-B3/GpL16-k0 (=100),0.55
"GpH7-A5/GpH7-B3 variant V266_12R/GpL16-k0 (antibody, human IgG1, kappa, Heterodimerized IgG1 (He Ab); mutation only in the GpH7-B3 chain; also called He Ab V266R) heavy 1: not shown heavy 2: not shown light: DIVMTQSPLSLPVTPGEPASISCQASESLVHSNRNTYLHWYLQKPGQSPQLLIYKVSNRFSGVPDRFSGSGSGTDFTLKISRVEAEDVGVYYCSQNTHVPPTFGQGTKVEIERTVAAPSVFIFPPSDEQLKSGTASVVCLLNNFYPREAKVQWKVDNALQSGNSQESVTEQDSKDSTYSLSSTLTLSKADYEKHKVYACEVTHQGLSSPVTKSFNRGEC",-1.1 % of control,1.1 % of control,-1.05,–,–,–
"GpH7-A5/GpH7-B3 variant V266_10E/GpL16-k0 (antibody, human IgG1, kappa, Heterodimerized IgG1 (He Ab); mutation only in the GpH7-B3 chain; also called He Ab V266E) heavy 1: not shown heavy 2: not shown light: DIVMTQSPLSLPVTPGEPASISCQASESLVHSNRNTYLHWYLQKPGQSPQLLIYKVSNRFSGVPDRFSGSGSGTDFTLKISRVEAEDVGVYYCSQNTHVPPTFGQGTKVEIERTVAAPSVFIFPPSDEQLKSGTASVVCLLNNFYPREAKVQWKVDNALQSGNSQESVTEQDSKDSTYSLSSTLTLSKADYEKHKVYACEVTHQGLSSPVTKSFNRGEC",15.2 % of control,10.1 % of control,0.66,–,–,–
"GpH7-A5/GpH7-B3 variant P238_20W/GpL16-k0 (antibody, human IgG1, kappa, Heterodimerized anti-glypican-3 IgG1; the substitution stands in the GpH7-B3 chain only; also called He Ab) heavy 1: not shown heavy 2: not shown light: DIVMTQSPLSLPVTPGEPASISCQASESLVHSNRNTYLHWYLQKPGQSPQLLIYKVSNRFSGVPDRFSGSGSGTDFTLKISRVEAEDVGVYYCSQNTHVPPTFGQGTKVEIERTVAAPSVFIFPPSDEQLKSGTASVVCLLNNFYPREAKVQWKVDNALQSGNSQESVTEQDSKDSTYSLSSTLTLSKADYEKHKVYACEVTHQGLSSPVTKSFNRGEC",–,–,–,123 % of GpH7-A5/GpH7-B3/GpL16-k0 (=100),49.7 % of GpH7-A5/GpH7-B3/GpL16-k0 (=100),0.4
"GpH7-A5/GpH7-B3 variant D265_01G/GpL16-k0 (antibody, human IgG1, kappa, Heterodimerized anti-glypican-3 IgG1; the substitution stands in the GpH7-B3 chain only; also called He Ab) heavy 1: not shown heavy 2: not shown light: DIVMTQSPLSLPVTPGEPASISCQASESLVHSNRNTYLHWYLQKPGQSPQLLIYKVSNRFSGVPDRFSGSGSGTDFTLKISRVEAEDVGVYYCSQNTHVPPTFGQGTKVEIERTVAAPSVFIFPPSDEQLKSGTASVVCLLNNFYPREAKVQWKVDNALQSGNSQESVTEQDSKDSTYSLSSTLTLSKADYEKHKVYACEVTHQGLSSPVTKSFNRGEC",–,–,–,16.1 % of GpH7-A5/GpH7-B3/GpL16-k0 (=100),4.5 % of GpH7-A5/GpH7-B3/GpL16-k0 (=100),0.28
"GpH7-A5/GpH7-B3 variant S239_03V/GpL16-k0 (antibody, human IgG1, kappa, Heterodimerized anti-glypican-3 IgG1; the substitution stands in the GpH7-B3 chain only; also called He Ab) heavy 1: not shown heavy 2: not shown light: DIVMTQSPLSLPVTPGEPASISCQASESLVHSNRNTYLHWYLQKPGQSPQLLIYKVSNRFSGVPDRFSGSGSGTDFTLKISRVEAEDVGVYYCSQNTHVPPTFGQGTKVEIERTVAAPSVFIFPPSDEQLKSGTASVVCLLNNFYPREAKVQWKVDNALQSGNSQESVTEQDSKDSTYSLSSTLTLSKADYEKHKVYACEVTHQGLSSPVTKSFNRGEC",–,–,–,108 % of GpH7-A5/GpH7-B3/GpL16-k0 (=100),76.6 % of GpH7-A5/GpH7-B3/GpL16-k0 (=100),0.71
"GpH7-A5/GpH7-B3 variant V266_15Y/GpL16-k0 (antibody, human IgG1, kappa, Heterodimerized IgG1 (He Ab); mutation only in the GpH7-B3 chain; also called He Ab V266Y) heavy 1: not shown heavy 2: not shown light: DIVMTQSPLSLPVTPGEPASISCQASESLVHSNRNTYLHWYLQKPGQSPQLLIYKVSNRFSGVPDRFSGSGSGTDFTLKISRVEAEDVGVYYCSQNTHVPPTFGQGTKVEIERTVAAPSVFIFPPSDEQLKSGTASVVCLLNNFYPREAKVQWKVDNALQSGNSQESVTEQDSKDSTYSLSSTLTLSKADYEKHKVYACEVTHQGLSSPVTKSFNRGEC",49.4 % of control,18.1 % of control,0.37,–,–,–
"GpH7-A5/GpH7-B3 variant P238_16H/GpL16-k0 (antibody, human IgG1, kappa, Heterodimerized anti-glypican-3 IgG1; the substitution stands in the GpH7-B3 chain only; also called He Ab) heavy 1: not shown heavy 2: not shown light: DIVMTQSPLSLPVTPGEPASISCQASESLVHSNRNTYLHWYLQKPGQSPQLLIYKVSNRFSGVPDRFSGSGSGTDFTLKISRVEAEDVGVYYCSQNTHVPPTFGQGTKVEIERTVAAPSVFIFPPSDEQLKSGTASVVCLLNNFYPREAKVQWKVDNALQSGNSQESVTEQDSKDSTYSLSSTLTLSKADYEKHKVYACEVTHQGLSSPVTKSFNRGEC",–,–,–,115 % of GpH7-A5/GpH7-B3/GpL16-k0 (=100),30.7 % of GpH7-A5/GpH7-B3/GpL16-k0 (=100),0.27
"GpH7-A5/GpH7-B3 variant V266_14T/GpL16-k0 (antibody, human IgG1, kappa, Heterodimerized IgG1 (He Ab); mutation only in the GpH7-B3 chain; also called He Ab V266T) heavy 1: not shown heavy 2: not shown light: DIVMTQSPLSLPVTPGEPASISCQASESLVHSNRNTYLHWYLQKPGQSPQLLIYKVSNRFSGVPDRFSGSGSGTDFTLKISRVEAEDVGVYYCSQNTHVPPTFGQGTKVEIERTVAAPSVFIFPPSDEQLKSGTASVVCLLNNFYPREAKVQWKVDNALQSGNSQESVTEQDSKDSTYSLSSTLTLSKADYEKHKVYACEVTHQGLSSPVTKSFNRGEC",82.3 % of control,43.3 % of control,0.53,–,–,–
